Source: article PMC6532946, “Structure and assembly of pilotin-dependent and -independent secretins of the type II secretion system” (PLoS Pathogens, 2019)

B1: ExeD secretin from A. hydrophila (cell-free synthesized, His-tagged) (natural protein)
chain: TEYSASFKNADIEEFINTVGKNLSKTIIIEPSVRGKINVRSYDLLNEEQYYQFFLSVLDVYGFAVVPMDNGVLKVVRSKDAKTSAIPVVDETNPGIGDEMVTRVVPVRNVSVRELAPLLRQLNDNAGGGNVVHYDPSNVLLITGRAAVVNRLVEVVRRVDKAGDQEVDIIKLKYASAGEMVRLVTNLNKDGNSQGGNTSLLLAPKVVADERTNSVVVSGEPKARARIIQMVRQLDRDLQSQGNTRVFYLKYGKAKDMVEVLKGVSSSIEADKKGGGTATTAGGGASIGGGKLAISADETTNALVITAQPDVMAELEQVVAKLDIRRAQVLVEAIIVEIADGDGLNLGVQWANTNGGGTQFTNAGPGIGSVAIAAKDYKDNGTTTGLAKLAENFNGMAAGFYQGNWAMLVTALSTNTKSDILSTPSIVTMDNKEASFNVGQEVPVQTGTQNSTSGDTTFSTIERKTVGTKLVVTPQINEGDSVLLTIEQEVSSVGKQATGTDGLGPTFDTRTVKNAVLVKSGETVVLGGLMDEQTKEEVSKVPLLGDIPVLGYLFRSTSNNTSKRNLMVFIRPTILRDANVYSGISSNKYTLFRAQQLDAVAQEGYATSPDRQVLPEYGQDVTMSPEAQKQIELMKTHQQATADGVQPFVQGNK
notes: ExeD, T2SS secretin of Aeromonas hydrophila; a TEV cleavage site linker lies between the His-6 tag and the protein. numbers count on: the mature protein; No TEV cleavage is described; also called pilotin-independent ExeD; GspD; source: cell-free expression system with liposomes, extracted as multimers with Zw3-14, purified (Ni-NTA, Superose 6); copies: 15

Experiments:
[1] = target: EpsD secretin from V. vulnificus (cell-free synthesized, His-tagged) (V. vulnificus); experiment: cryo-EM structure; purified multimers in TN buffer with Zw3-14, Quantifoil holey carbon grids with an extra 2 nm carbon layer; 2D class averages of top views; C15 symmetry imposed in the reconstruction
[2] = target: the molecule itself; experiment: as above

Molecule	stoichiometry N [1]	stoichiometry N [2]
EpsD secretin from V. vulnificus (cell-free synthesized, His-tagged) (natural protein)	15	–
B1	–	15
